Laboratory results from paper PMC4432651, “Dynamic interplay between catalytic and lectin domains of GalNAc-transferases modulates protein O-glycosylation” (Nature Communications, 2015).
Where no end group is shown, it is not given here.

B1: polypeptide N-acetylgalactosaminyltransferase 2 (GalNAc-T2), K75-Q571 (enzyme)
chain: not shown
notes: GalNAc-T2, residues K75-Q571, catalytic domain, flexible linker and lectin domain; Monomers and dimers coexist in solution by SAXS; also called wild-type (WT) enzyme
B2: MUC5AC-3-13 diglycosylated peptide (peptide)
peptide: GTT(GalNAc)PSPVPTTSTT(GalNAc)SA
modifications: not fully specified (C-terminus)
notes: Made on Rink amide resin, so the C-terminus is probably an amide (surmised); source: synthetic peptide (Fmoc solid-phase synthesis on Rink Amide MBHA resin, HPLC purified)
B3: MUC5AC peptide (naked) (peptide)
peptide: GTTPSPVPTTSTTSA
notes: peptide named after mucin MUC5AC; Made on Rink amide resin, so the C-terminus is probably an amide (surmised); source: synthetic peptide (Fmoc solid-phase synthesis on Rink Amide MBHA resin, HPLC purified)
B4: MUC5AC-13 glycopeptide (peptide)
peptide: GTTPSPVPTTSTT(GalNAc)SA
notes: as for B2

How the values were obtained:
[1] = biological target: the molecule itself; assay: SAXS; solution scattering with ensemble analysis (EOM), monomer and dimer pools; enzyme without ligands (2.5, 5.0 and 10.0 mg/ml) or with UDP or UDP-GalNAc
[2] = biological target: T1, polypeptide N-acetylgalactosaminyltransferase 2 (GalNAc-T2), K75-Q571 (human, UniProt Q10471 75-571); assay: other fluorescence titration; tryptophan fluorescence quenching of GalNAc-T2 (1 µM) by peptides at 1-500 µM; 25 mM Tris, 150 mM NaCl, pH 7.5, 25 °C; no UDP/Mn2+; single binding site model; settings: both partners purified
T1 construct: GalNAc-T2 (polypeptide N-acetylgalactosaminyltransferase 2), residues K75-Q571: catalytic domain, flexible linker and lectin domain; Theoretical MW 56.7 kDa (D1:p10); source: expression plasmid pPICZαAgalnact2 (K75-Q571)
T1 sequence (Q10471 75-571): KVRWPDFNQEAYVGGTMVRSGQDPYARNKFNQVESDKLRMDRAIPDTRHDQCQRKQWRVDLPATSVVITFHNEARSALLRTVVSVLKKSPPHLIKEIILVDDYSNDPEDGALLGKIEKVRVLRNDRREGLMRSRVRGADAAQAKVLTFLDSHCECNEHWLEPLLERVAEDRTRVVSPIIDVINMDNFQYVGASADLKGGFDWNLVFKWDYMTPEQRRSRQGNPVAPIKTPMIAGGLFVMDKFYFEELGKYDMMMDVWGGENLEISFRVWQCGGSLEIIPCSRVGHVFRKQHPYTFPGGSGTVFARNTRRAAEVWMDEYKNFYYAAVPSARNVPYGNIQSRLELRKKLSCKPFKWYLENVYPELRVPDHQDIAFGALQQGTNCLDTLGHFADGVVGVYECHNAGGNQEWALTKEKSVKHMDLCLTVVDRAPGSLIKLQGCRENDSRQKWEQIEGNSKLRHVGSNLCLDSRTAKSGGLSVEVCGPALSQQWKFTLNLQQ

[3] = biological target: T1, polypeptide …; assay: other fluorescence titration; tryptophan fluorescence quenching of GalNAc-T2 (1 µM) by peptides at 1-500 µM; 25 mM Tris, 150 mM NaCl, pH 7.5, 25 °C; with 400 µM UDP and 1 mM MnCl2; single binding site model; settings: both partners purified

Binder	stoichiometry N [1]	Kd [2]	Kd [3]
B1	2	–	–
B2	–	11 ± 4 µM	17 ± 9 µM
B3	–	7 ± 3 µM	31 ± 16 µM
B4	–	8 ± 3 µM	5 ± 1 µM
